{"source": "paper PMC4917739", "key": {"[1]": {"target": "BG505 SOSIP.664 trimer (HIV-1 strain BG505)", "assay": "SPR"}, "[2]": {"target": "single-chain BG505 SOSIP.664 trimer (HIV-1 strain BG505)", "assay": "SPR"}, "[3]": {"target": "BG505 SOSIP.664 N88Q (HIV-1 strain BG505)", "assay": "SPR"}, "[4]": {"target": "BG505 SOSIP.664 trimer (HIV-1 strain BG505)", "assay": "negative-stain electron microscopy"}}, "data": [{"substance": "Fab VRC34.01", "values": [{"measurement": "Kd", "setting": "[1]", "value": 0.3, "unit": "nM"}, {"measurement": "Kd", "setting": "[2]", "value": 272, "unit": "nM"}, {"measurement": "Kd", "setting": "[3]", "value": 19.9, "unit": "nM"}, {"measurement": "stoichiometry N", "setting": "[4]", "value": 3}]}]}
